Results from US20050048527, “Endonuclease-substrate complexes” (Third Wave Technologies, Inc., published 2005).
Where a chain is given by its changes, count along the chain named.

How the values were obtained:
Pfu Y33F FEN1 = target: T1, Pfu Y33F FEN1 (Pyrococcus furiosus, UniProt O93634 SEQ:1-340, Y33F); experiment: cleavage_in_vitro; rate vs Pfu FEN1; settings: label: 5'-biotin target; 5'-TET probe; hairpin target-INVADER with overlapping probe flap
T1 sequence: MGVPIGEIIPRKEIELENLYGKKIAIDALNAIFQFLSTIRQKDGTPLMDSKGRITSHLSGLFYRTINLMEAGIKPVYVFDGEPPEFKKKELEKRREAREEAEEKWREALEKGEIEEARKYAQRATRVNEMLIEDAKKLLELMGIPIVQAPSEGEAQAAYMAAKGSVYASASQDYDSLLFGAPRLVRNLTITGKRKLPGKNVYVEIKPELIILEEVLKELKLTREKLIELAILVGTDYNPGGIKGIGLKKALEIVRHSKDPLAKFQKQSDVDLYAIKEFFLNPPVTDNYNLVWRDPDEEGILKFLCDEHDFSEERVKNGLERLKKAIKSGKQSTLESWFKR
Protocol: (§1) For the evaluation of chimeric enzymes, standard tests were performed to measure the performance and specificity of the enzymes. […] 10 μl reactions are run at 59 C for between 5 to 60 minutes depending on the enzyme. Reactions are stopped by the addition of 10 μl of 95% formamide, 0.02% methyl violet. 1 μl of the mixture is run on a denaturing 20% acrylamide gel and electrophoresed for 15 minutes or until good separation is achieved between cleaved and uncleaved probe. The gels are scanned using an FMBIO fluorescent gel scanner and the bands are quantified with FMBIOAnalysis software. Cleavage rates are determined from the percent probe cleaved. Cleavage rate for the INVADER substrate is defined as the number of probe molecules cleaved per target molecule per minute. In Table 5, below, the cleavage rates for the mutant enzymes are compared to the cleavage rates for unmodified Pfu FEN1 enzyme on the INVADER assay and X-structure substrates.
(§2) The X-structure substrate is used to determine the amount of background cleavage an enzyme will carry out in an INVADER reaction. It mimics the structure created by uncut primary probe and secondary FRET cassette in the INVADER squared reaction. […] 10 μl reactions are run at 59 C for between 3 to 30 minutes depending on the enzyme. Reactions are stopped by the addition of 10 μl of 95% formamide, 0.02% methyl violet. 1 μl of the mixture is run on a denaturing 20% acrylamide gel and electophoresed for 15 minutes or until good separation is achieved between cleaved and uncleaved probe. The gels are scanned using an FMBIO fluorescent gel scanner and the bands are quantified with FMBIOAnalysis software. Cleavage rates are determined from the percent probe cleaved.

Pfu Y33A FEN1 = target: T2, Pfu Y33A FEN1 (Pyrococcus furiosus, UniProt O93634 SEQ:1-340, Y33A); experiment: cleavage_in_vitro; rate vs Pfu FEN1; settings: label: 5'-biotin target; 5'-TET probe; hairpin target-INVADER with overlapping probe flap
T2 sequence: T1 sequence with F33A
Protocol: as §1, §2

B1: INVADER substrate 594-12-1/203-91-1 (structured_DNA)
DNA 1: TTTTTCACGGCAGTTGGTGCGCCTCGGAACGAGGCGCACA
DNA 2: TTTTCAACTGCCGTGA
cleavage rate (Pfu Y33F FEN1): 0.96
cleavage rate (Pfu Y33A FEN1): 0.05
